The values that follow come from patent US20160348147A1, “SYSTEMS AND DEVICES FOR PROTEASE DETECTION BASED ON ENGINEERED POLYMERS AND BIOPOLYMERS AND METHODS OF USE” (DUKE UNIVERSITY, priority 2014, published 2016).

In this assay the target is ELP-substrate fusion M(GVGVP)60…. Kind of assay: cell-based or functional assay.
Sequence of ELP-substrate fusion M(GVGVP)60… (chain, as listed by the source): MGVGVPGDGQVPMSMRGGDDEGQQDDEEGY

With “Human MMP-1 catalytic domain (recombinant, produced in E. coli, 19.9 kDa) (from UniProt P03956 100-269) (enzyme)”, the aggregation time (optical density versus time), 50 ng/mL MMP-1, without inhibitor was below 50 min.
